Earlier results as cited in publication PMC8199105.

Biological target: Albumin (UniProt P02768)
Experiment: surface plasmon resonance

Kd: 630 nM
Substance: Cubilin (from UniProt O70244)
